Results as given in PMC8409985.

Target: truncated human ACE2 ectodomain (residues 19–613) with C-terminal AVI-tag and 6xHis-tag, biotinylated (human) (UniProt Q9BYF1)
Experiment: BLI

Q: How did the t1/2 turn out when “SARS-CoV-2 RBD variant S477N (from UniProt P0DTC2 319-541) (domain or fragment)” was run?
A: 2.68 min
